Legend:
[1] = target: T1, ClxD (H16_B0216), Clx decarboxylase (Cupriavidus necator, UniProt Q0K4Q7); assay: in vitro decarboxylation assay; type: biochemical; settings: with 2-carboxy-L-lyxonate; catalytic NAD+, regenerated in the reaction
T1 sequence (Q0K4Q7 1-338): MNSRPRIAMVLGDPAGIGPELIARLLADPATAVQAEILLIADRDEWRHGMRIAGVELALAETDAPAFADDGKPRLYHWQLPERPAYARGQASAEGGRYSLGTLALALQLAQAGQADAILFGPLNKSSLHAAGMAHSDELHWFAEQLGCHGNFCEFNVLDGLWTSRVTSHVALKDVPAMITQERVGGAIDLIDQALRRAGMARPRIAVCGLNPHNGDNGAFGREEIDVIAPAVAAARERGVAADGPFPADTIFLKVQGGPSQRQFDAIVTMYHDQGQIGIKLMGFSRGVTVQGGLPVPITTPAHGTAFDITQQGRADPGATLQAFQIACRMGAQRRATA

[2] = target: T2, KgsD (H16_B0212), Kgs dehydrogenase (Cupriavidus necator, UniProt Q0K4R1); assay: in vitro activity assay; type: biochemical
T2 sequence (Q0K4R1 1-527): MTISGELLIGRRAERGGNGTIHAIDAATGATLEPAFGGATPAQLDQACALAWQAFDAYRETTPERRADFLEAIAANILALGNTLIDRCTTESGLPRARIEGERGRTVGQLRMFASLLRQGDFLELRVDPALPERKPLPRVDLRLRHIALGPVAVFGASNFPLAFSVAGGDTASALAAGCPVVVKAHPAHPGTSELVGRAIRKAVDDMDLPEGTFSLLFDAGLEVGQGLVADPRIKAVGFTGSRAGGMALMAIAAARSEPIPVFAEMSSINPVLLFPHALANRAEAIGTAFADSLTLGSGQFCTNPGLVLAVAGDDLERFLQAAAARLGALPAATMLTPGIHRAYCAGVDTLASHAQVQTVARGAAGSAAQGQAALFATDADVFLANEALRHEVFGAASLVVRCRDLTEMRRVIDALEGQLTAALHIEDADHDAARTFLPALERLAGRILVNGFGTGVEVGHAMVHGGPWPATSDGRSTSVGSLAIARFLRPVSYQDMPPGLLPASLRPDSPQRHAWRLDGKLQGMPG

[3] = target: T3, LyxD (H16_B0217), L-lyxonate dehydratase (Cupriavidus necator, UniProt Q0K4Q6); assay: in vitro activity assay; type: biochemical
T3 sequence (Q0K4Q6 1-391): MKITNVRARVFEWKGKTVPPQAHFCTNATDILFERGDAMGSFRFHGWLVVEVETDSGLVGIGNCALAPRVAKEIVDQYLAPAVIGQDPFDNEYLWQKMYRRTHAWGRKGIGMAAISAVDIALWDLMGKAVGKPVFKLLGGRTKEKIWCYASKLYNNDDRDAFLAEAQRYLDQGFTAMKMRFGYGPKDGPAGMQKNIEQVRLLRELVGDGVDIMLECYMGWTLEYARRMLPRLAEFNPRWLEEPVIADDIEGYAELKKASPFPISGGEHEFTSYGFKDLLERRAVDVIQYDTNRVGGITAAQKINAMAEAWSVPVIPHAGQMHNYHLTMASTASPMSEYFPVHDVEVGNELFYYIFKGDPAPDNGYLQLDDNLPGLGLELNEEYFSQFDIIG

[4] = target: T4, KdlD, Kdl dehydratase (Cupriavidus necator, UniProt Q0K4R0); assay: in vitro activity assay; type: biochemical
T4 sequence (Q0K4R0 1-310): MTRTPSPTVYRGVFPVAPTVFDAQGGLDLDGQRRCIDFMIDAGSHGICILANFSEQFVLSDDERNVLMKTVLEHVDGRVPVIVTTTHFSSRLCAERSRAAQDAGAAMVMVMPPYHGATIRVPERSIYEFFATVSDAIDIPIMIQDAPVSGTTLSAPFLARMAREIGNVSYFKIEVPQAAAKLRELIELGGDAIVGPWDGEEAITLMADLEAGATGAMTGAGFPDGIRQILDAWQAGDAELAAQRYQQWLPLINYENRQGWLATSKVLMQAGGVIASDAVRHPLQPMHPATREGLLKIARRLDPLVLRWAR

[5] = substrate: O=C1O[C@H]([C@@H](O)CO)C(=O)C1=O; assay: in vitro enzyme kinetics; type: biochemical, Cupriavidus necator
[6] = substrate: O=C(O)C(O)(C(=O)O)[C@H](O)[C@@H](O)CO; assay: in vitro enzyme kinetics; type: biochemical, Cupriavidus necator; settings: NAD+ as catalytic cofactor
[7] = substrate: O=C(O)C(=O)C(=O)[C@H](O)[C@@H](O)CO; assay: in vitro enzyme kinetics; type: biochemical, Cupriavidus necator

In the case of `NC(=O)c1ccc[n+]([C@@H]2O[C@H](COP(=O)(O)OP(=O)(O)OC[C@H]3O[C@@H](n4cnc5c(N)ncnc54)[C@H](O)[C@@H]3O)[C@@H](O)[C@H]2O)c1` [NAD^+], the “in vitro decarboxylation assay; stopped-flow absorbance at 340 nm” value [1] is reported as “generates L-lyxonate (Figure 1C), even with sub-stoichiometric amounts of NAD^+”.

`O=CCCC(=O)C(=O)O` [α-ketoglutarate semialdehyde] was tested, and the “in vitro activity assay (oxidation)” value [2] was “heterologously expressed and display the predicted in vitro activities”.

For `O=C(O)[C@H](O)[C@H](O)[C@@H](O)CO` [L-lyxonate], the “in vitro activity assay (dehydration)” value [3] was “heterologously expressed and display the predicted in vitro activities”.

In the case of `O=C(O)C(=O)C[C@@H](O)CO` [2-keto-3-deoxy-L-lyxonate], the “in vitro activity assay (dehydration)” value [4] is reported as “heterologously expressed and display the predicted in vitro activities”.

B1: DhaL (H16_A3012), DHA lactonase (Cupriavidus necator H16) (protein)
chain: MDTVRIFDERARELPLAGERLEQLACRATWSEGPVWLPDEDAVLWSDIPNDRILRWSAADGMSVWRTGAGFTNGHALEADGSLLHCSHGKRAIVRTHRSGARLGEDELVVSHYQGRRLNSPNDIVVKRDGTLWFTDPPYGILSDREGHRADPELRHNYVFRYDPAVGALEVASDLIEEPNGLAFSPDEDVLYVSDTSAALRDDGHHHIVAFDVVAGRVLANPRVFAVIAPGLPDGFRVDRRGWLFTSSASGVQVFHPDGTRLAHIPVPEKVGNLVFGGAEGDALFIAASTSLYRLRLGQRLT
B1 was tested, and the Km [5] was 490 ± 70 µM and the kcat [5] was 8.0 ± 0.6 s−^1.

B2: ClxD (H16_B0216), Clx decarboxylase (Cupriavidus necator H16) (protein)
chain: MNSRPRIAMVLGDPAGIGPELIARLLADPATAVQAEILLIADRDEWRHGMRIAGVELALAETDAPAFADDGKPRLYHWQLPERPAYARGQASAEGGRYSLGTLALALQLAQAGQADAILFGPLNKSSLHAAGMAHSDELHWFAEQLGCHGNFCEFNVLDGLWTSRVTSHVALKDVPAMITQERVGGAIDLIDQALRRAGMARPRIAVCGLNPHNGDNGAFGREEIDVIAPAVAAARERGVAADGPFPADTIFLKVQGGPSQRQFDAIVTMYHDQGQIGIKLMGFSRGVTVQGGLPVPITTPAHGTAFDITQQGRADPGATLQAFQIACRMGAQRRATA
B2 gave a Km [6] of 800 ± 400 µM and a kcat [6] of 0.33 ± 0.08 s−^1.

B3: DkgM (H16_B1217), DKG mutase (Cupriavidus necator H16) (protein)
chain: MESQWTAVLVEKFGHSFSAYELDGGERRFSVQLPDYPHEFVVDRERLCGYVGHYGVQTFAHAGDGGAAVIAVDLMRGAVRARLDCSPYHRIHGLQIDRQGRVYALSERDNMLVVFEAPLEHPVPDRAVPAGGVKSHLFVLSADGERAYVTNLLSHTVTLVHPYDATRAPRAAYAGRRPEGCCLSRDEAALYVASRDDHSLTRLDARTMEAVRTVPTGEDPTRIYWSPDDRLFVLNYGERSIRVFDPDTLAETGRVDTGARPIALAFHPADPSRAYIALNDHTVGQLDLPGLALRHAFTTGKEPDGLAILALPTR
Work on B3 yielded a Km [7] of 81 ± 7 µM and a kcat [7] of 0.6 ± 0.1 s−^1.
